Assay results published in patent US20220049008A1 (MULTITUDE, published 2022).
Values joined by “and” are separate entries in the source; they are usually repeats but may differ in a detail not shown here. Identical values can stand only once. Each block holds one binder with its values, some of them ahead of it.

Key:
[1] = biological target: T1, CD44 v7/8 (human CD44 v7/8 splice variant) on CD44+ cells (human, UniProt P16070 21-742); assay: flow cytometry on A253 cells; humanized HIS029, A253 cells
T1 construct: Endogenous protein on tumour cell lines (D562, A253, NCI-H520, BXPC3); no signal peptide limits are stated; also called CD44 variant 7/8; HCAM
T1 sequence (P16070 21-742 limits assumed, change not shown): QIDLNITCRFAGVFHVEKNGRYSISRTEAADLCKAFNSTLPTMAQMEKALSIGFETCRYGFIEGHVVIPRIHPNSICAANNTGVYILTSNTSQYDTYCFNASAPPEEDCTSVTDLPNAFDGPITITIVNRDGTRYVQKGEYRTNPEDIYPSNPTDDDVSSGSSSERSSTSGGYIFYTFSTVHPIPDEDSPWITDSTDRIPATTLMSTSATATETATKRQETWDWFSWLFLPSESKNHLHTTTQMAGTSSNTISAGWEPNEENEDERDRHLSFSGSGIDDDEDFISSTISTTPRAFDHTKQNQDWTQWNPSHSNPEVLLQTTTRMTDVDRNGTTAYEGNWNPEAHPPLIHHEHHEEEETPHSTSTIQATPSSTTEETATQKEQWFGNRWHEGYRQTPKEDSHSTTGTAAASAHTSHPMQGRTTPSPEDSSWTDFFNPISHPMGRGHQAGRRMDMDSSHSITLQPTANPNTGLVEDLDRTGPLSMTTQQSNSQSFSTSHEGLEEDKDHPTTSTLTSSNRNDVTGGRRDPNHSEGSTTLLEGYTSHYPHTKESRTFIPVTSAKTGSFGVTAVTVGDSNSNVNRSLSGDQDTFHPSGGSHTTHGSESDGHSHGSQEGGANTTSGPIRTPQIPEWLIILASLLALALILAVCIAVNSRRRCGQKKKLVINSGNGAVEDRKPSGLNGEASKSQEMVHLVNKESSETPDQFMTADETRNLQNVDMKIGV

[2] = biological target: T1, CD44 v7/8 (human CD44 v7/8 splice …); assay: flow cytometry on CD44+ A253 cells, antibody titration
[3] = biological target: T1, CD44 v7/8 (human CD44 v7/8 splice …); assay: cell-based or functional assay
[4] = biological target: T1, CD44 v7/8 (human CD44 v7/8 splice …); assay: flow cytometry on A253 cells; HIS029 (parental antibody), A253 cells

- Kd [1]: 36 nM
- EC50 (read off the curve) [2]: ~40 nM and ~60 nM
B1: Humanized HIS029 (antibody, V domains shown)
VH: QVQLVQSGSELKKPGASVKVSCKASGYTFTNYWINWVRQAPGQGLEWMGNIYPSDSYTNYNQKFKDRAVFSVDKSVSTAYLQISSLKAEDTAVYYCTKWGDSDYWGQGTTVTVSS
VL: DIQMTQSPSSLSASVGDRVTITCKASQDINRYLRWFQQKPGKSPKTLIYRANRLVDGVPSRFSGSGSGQDYTLTISSLQPEDFATYYCLQYDEFPFTFGQGTKLEIK
notes: also called humanized HIS029 antibody

B2: HIS029-vc-MMAE (other)
VH: QVHLQQPGAELVRPGASVKLSCKASGYTFTNYWINWVKQRPGQGLEWIGNIYPSDSYTNYNQKFKDKATLTVDKSSSTAYVHLSSPTSEDSAVYYCTKWGDSDYWGQGTTLTVSS
VL: DIKMTQSPSSMYASLGERVTITCKASQDINRYLRWFQQKPGKSPKTLIYRANRLVDGVPSRFSGSGSGQDYSLTISSLEYEDMGIYYCLQYDEFPFTFGSGTKLEIK
modifications: monomethyl auristatin E coupled through a maleimidocaproyl-Val-Cit-PAB linker by a thiol-based reaction; sites not stated
- cell viability, IC50 (A253 cells) [3]: 0.797 nM
- cell viability, IC50 (BXPC3 cells) [3]: 0.189 nM
- cell viability, IC50 (D562 cells) [3]: 0.63 nM
- cell viability, IC50 (NCI-H520 cells) [3]: 0.588 nM

- EC50 (read off the curve) [2]: ~40 nM
- Kd [4]: 35 nM
B3: HIS029 (antibody, V domains shown)
VH: B2 VH
VL: B2 VL
notes: Monoclonal antibody from a hybridoma, V regions amplified with mouse Ig primers; also called anti-CD44 v7/8 antibody; antibody clone HIS029
